According to IntAct's records for PubMed 16499958:

Tests used:
rabx5_human RABGEF1 [1] = molecular target: rabx5_human RABGEF1 (UniProt Q9UJ41)
rabx5_human RABGEF1 [2] = molecular target: rabx5_human RABGEF1 (UniProt Q9UJ41); remark: listed apart in the source

Row | effect of a mutation on the interaction (rabx5_human RABGEF1 [1]) | effect of a mutation on the interaction (rabx5_human RABGEF1 [2]) | Substance
1 | decreasing interaction | – | Polyubiquitin-B (Homo sapiens) (from UniProt P0CG47) I44A
2 | – | decreasing interaction | Polyubiquitin-B (Homo sapiens) (from UniProt P0CG47) D58A
